Laboratory results reported in paper PMC3491106 (Biochemistry, 2012).
Numbering of substitutions follows the chain as printed.

Key:
[1] = target: His6-EhFormin1 fusion (GBD-FH3 domain tandem, 40-residue linker, FH2-DAD fragment) (E. histolytica); assay: SPR
[2] = target: T1, His6-EhFormin1 GBD-FH3 domain tandem (a.a. 69-418) (E. histolytica, UniProt C4M622 69-418); assay: SPR
T1 sequence (looked up): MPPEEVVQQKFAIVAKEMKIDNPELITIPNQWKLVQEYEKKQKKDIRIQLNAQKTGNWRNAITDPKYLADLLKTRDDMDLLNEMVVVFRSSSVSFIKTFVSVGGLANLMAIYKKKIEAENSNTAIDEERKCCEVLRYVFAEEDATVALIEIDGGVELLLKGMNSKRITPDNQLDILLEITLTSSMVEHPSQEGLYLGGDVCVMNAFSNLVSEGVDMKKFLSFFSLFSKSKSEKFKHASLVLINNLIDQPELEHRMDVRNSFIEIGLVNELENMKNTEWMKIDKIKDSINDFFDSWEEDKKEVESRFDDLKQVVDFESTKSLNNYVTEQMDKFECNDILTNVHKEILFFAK

B1: EhRho1·GTPγS (Entamoeba histolytica Rho1, wild type, loaded with GTPγS) (natural protein, E. histolytica)
chain: MLAFSDMNTGAGKIENGKKALKIVVVGDGAVGKTCLLLAFSKGEIPTAYVPTVFENFSHVMKYKNEEFILHLWDTAGQEEYDRLRPLSYADSDVVLLCFAVNNRTSFDNISTKWEPEIKHYIDTAKTVLVGLKVDLRKDGSDDVTKQEGDDLCQKLGCVAYIEASSVAKIGLNEVFEKSVDCIFSNKPVPK
Kd [1]: 3000 nM
Kd [2]: ~3000 nM

B2: EhRho1 Arg83 to Gln mutant (natural protein)
chain: B1 chain with R83Q
Kd [2]: > 100000 nM
